From PMC11926218, “Structure and unusual binding mechanism of the hyaluronan receptor LYVE-1 mediating leucocyte entry to lymphatics” (Nature Communications, 2025) come the findings set out here.

The data set deals with the molecule itself. Put plainly: SEC; Superdex Increase 200 10/300GL, protein in PBS after His Trap purification; step run to remove aggregates.

B1: wild-type hLYVE-1 Δ238 His10 (soluble full ectodomain of human LYVE-1) (domain or fragment, UniProt Q9Y5Y7 20-238, looked up)
chain: LVQGSLRAEELSIQVSCRIMGITLVSKKANQQLNFTEAKEACRLLGLSLAGKDQVETALKASFETCSYGWVGDGFVVISRISPNPKCGKNGVGVLIWKVPVSRQFAAYCYNSSDTWTNSCIPEIITTKDPIFNTQTATQTTEFIVSDSTYSVASPYSTIPAPTTTPPAPASTSIPRRKKLICVTEVFMETSTMSTETEPFVENKAAFKNEAAGFGGVPT
notes: signal peptide in the construct; Obtained as a mixture of monomer and disulfide-linked homodimer; The protein is glycosylated, made in CHO cells; also called hLYVE-1 full wild-type ectodomain; hLYVE-1 Δ238 with a His10 single tag; source: CHO-K1, transfected (pEE14), culture supernatant, purified (His Trap, size exclusion chromatography); not shown: His10, C-terminal, kept
In the case of B1, the binding result is reported as “binds”.
